# Measured values: patent WO2014192202A1 (dated 2014)
# B1: wild type scFv antibody fragment (SEQ ID NO: 62) (scFv)
# scFv: DIVMTQSPSSLAMSVGQKVTMSCKSSQSLLNSSNQKNYLAWYQQKPGQSPKLLVYFASTRESGVPDRFIGSGSGTDFTLTISSVQAEDLADYFCQQHYSTPLTFGAGTKLELKRGGGGSGGGGSGGGGSEVKLEESGGGLVKPGGTLKLSCAASGFTFSSYAMSWVRQTPEKRLDWVATISSGGSYIFYPDSVKGRFTISRDNARNTLYLQMNSLRSEDTAMYYCARHHNPDKSGFAYWGQGTLVTVSAAAALEHHHHHH
# notes: also called wild scFv antibody fragment
# Target: T1, human cardiac muscle-derived troponin I (human, UniProt P19429 2-210)
# T1 construct: Immobilised on a CM5 chip at about 500 RU; also called troponin I derived from human myocardium; human myocardial troponin I
# T1 sequence (P19429 2-210 limits assumed): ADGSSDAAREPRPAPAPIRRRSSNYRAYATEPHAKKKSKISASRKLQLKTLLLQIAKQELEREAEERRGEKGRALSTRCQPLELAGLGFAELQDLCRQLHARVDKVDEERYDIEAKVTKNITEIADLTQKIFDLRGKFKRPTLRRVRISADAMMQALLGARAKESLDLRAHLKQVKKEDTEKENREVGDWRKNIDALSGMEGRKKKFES
# Experiment: SPR (Biacore T100), troponin I immobilised on CM5 chip, as in Example 1
binder,measurement,value
B1,binding result,binds
